Source: US5908827, “Protein from urine named component B” (Applied Research Systems ARS Holding N.V., dated 1999)

Target: TGF-alpha receptor obtained from A 431 cell membranes (Homo sapiens (Human), UniProt P00533)
Assay: displacement of I^125-TGF-alpha from its receptor on A 431 cell membranes (radioligand competition)

B1: Component B (other)
chain: LKCYTCKEPMTSASCRTITRCKPEDTACMTTLVTVEAEYPFNQSPVVTRSCSSSCVATDPDSIGAAHLIFCCFRDLCNSEL
modifications: SO4 group bound to Tyr (39); five disulfide bridges (urinary material)
Q: Which Ki does the source give for B1 here?
A: 0.077 nM
